These results are taken from the supplement of paper PMC12636428.

Bounds are passed on as bounds.

The series has as its system Saccharomyces cerevisiae. In words: transcriptional activation domain activity (GFP:mCherry ratio, weighted mean of sorted bins, harmonized to initial dataset scale) (arbitrary fluorescence ratio units); higher = stronger transcriptional activation. The following applies: beta-estradiol 1 µM; induction time 4 h. The method, boiled down:
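Sorting into 8 bins by GFP:mCherry ratio followed a 4-hour hold at 30 °C after cultures were diluted 1:5 into SC with 1 uM beta-estradiol. The yeast diploids carried a GFP reporter and had barcoded protein tiles, fused to an estradiol-inducible synthetic transcription factor, integrated at URA3. Barcodes were then sequenced, and tiles with under 50 reads were removed. Activation activity is the read-weighted mean of bin median fluorescence, averaged across barcodes and linearly mapped onto the initial dataset scale.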

As for “HVGRLMPIIAYFRAVIKCIEMLGVKRPVLVCPLSSFHGGFYVGGLMFQCVDRK”, the “transcriptional activation domain activity” value is 62600.

For the sequence “MISFFNWQVWGGFCGLLFIFFLFDFFLLEFGSTYHLLEDGLNLFLFWYFYDYD”, the “transcriptional activation domain activity” value came out at 43600.

“EVKETKEGESQSPAKQEVVQEETVKPSPPQPPQQTKQQKKKKLVLTSGGGGRG”: the “transcriptional activation domain activity” value is below 6570.

As for “SGLPIQYLNGSVTYQDGWVWLPGDSTDINATVQDLEDMWDSMVLNFWPLMTLF”, the “transcriptional activation domain activity” value came to 66100.

For the sequence “RRTRYLVLCVALELISSILYLYLISIFGSLHLATFPLRLGFFFLLLSRLLCTM”, the “transcriptional activation domain activity” value was found to be 35100.

As to “MATDATVNAPASAEATTARRRRSHQKSRLGCRNCKLRRVKCDERRPRCVKCRE”, the “transcriptional activation domain activity” value was determined as 35500.

In the case of “MFFLFFLLVSWWLCYLLLMASSFLIVGGMYLLALCPPLGCIGDLVVPFYFLFL”, the “transcriptional activation domain activity” value came to 81700.

As for “EEEEEEEGGETKKKRRRAASAAAKGRKGGRKSTASEEDEVVGGEESENRASKK”, the “transcriptional activation domain activity” value came to 25400.

“RRVLVLVMEELGYRTDHAFRIAHRLDRLYQMALTRFLTLTAGVIDLMERIRMS”: the “transcriptional activation domain activity” value came to 58400.

“GVFILCRKRIVYMDGWRVWGVLIFRLFTWLFLGWLKIARGLGLGPALMMFLWL”: the “transcriptional activation domain activity” value came to 46200.

On to “DNDDDGETAAGGRLAHLLQILVCNAIYSFEPLLNCSQDVNNVLVVVTRYYGGI”, for which the “transcriptional activation domain activity” value is 57500.

As to “DQSEISRTTSRSDTPLRDEDGLDFWETLRSLATTNPNPPVEKSAENDGAKPQV”, the “transcriptional activation domain activity” value amounted to 41100.

Turning to “YNIRAKGFNIFNITISVGLIFNQYVNPIALAVLTWKYYVVYCAWLLCEVLFLY”, the “transcriptional activation domain activity” value came to 81900.

As to “QKKLLILCGFGWLADNVSIYHLLSISCWFYYKGTQLYSLFLIRCGYRLWLLFF”, the “transcriptional activation domain activity” value is 70700.

For “QQPITYRKTIYDFFSWFLSLGFLNMMVPCFDLLYISRILVVWREVYYCHLIIA”, the “transcriptional activation domain activity” value was 58100.

Turning to “LPTKYRVLDGLFQALAVRAGGFYVVTIANLRQGLLYVSAYPVTLTMRNTNVYE”, the “transcriptional activation domain activity” value was 48900.

As for “GEAGAEGEAAAAEGEGAAEEGASGEGAEGEEAAAEEGEGAEEEGGEDLQALAT”, the “transcriptional activation domain activity” value is below 6570.

On to “GEEKPKPVRRQRQPKDPNAPPPQRKKRKTAAEKAAEAAAAASTPTPAPAPAPA”, for which the “transcriptional activation domain activity” value came out at 13600.

Regarding “MHPCTLLSFRVFAYFYLLLIPPPPLLYSYLSYTNIYSYIIVLLLLLLFYVTIV”, the “transcriptional activation domain activity” value was 54800.

For “DEDRRKRRRSRSRSPDREEESSRRRRDRSRSRSKDADRKKRKRDKSEERKARK”, the “transcriptional activation domain activity” value is 30900.

Regarding “RWGGILNTHLCLLSTLVLCCTMLRFCINVIWTDTFVNWEMGWRTVCPWLLILL”, the “transcriptional activation domain activity” value amounted to 44600.

Turning to “MLRYFPTYRDEVVNAANYLNVVLSMDAFYYYQFCLNWTSTQLYDTWFNACFRI”, the “transcriptional activation domain activity” value is 59100.

As for “GLRNERHFVLFMAYFVLSCWCFCTLGYSYMYLSLDFTQDWPHWPGRTPFILIY”, the “transcriptional activation domain activity” value came out at 54000.

Take “MLLIWLYALKTGFVLSAVVSFGFWYSISLFFMYFIGKPLFHDSFFLFFSSFFL”: the “transcriptional activation domain activity” value is 57200.

“IEDQTKYVTQAYLAATRIVTIISKLVETRHLIELPIYIRQSVTYAVLILFRLH”: the “transcriptional activation domain activity” value worked out at 56400.

Take “GLQGQYNAYSTKHNINVPHGDILVFSLACGQIMYAWLMRPDTLPISYSNWICN”: the “transcriptional activation domain activity” value is 39300.

With “MFWLSVSCYTYKIIRFYYADCGLVGVLKDQVQQCWIHLSYDLVYQYLPNLLNW”, the “transcriptional activation domain activity” value stood at 69400.

“LNWYWLASTMYFLYGESVIYYFKHIVLVDKVLLPLATHHRFISFLLYLMGFVF”: the “transcriptional activation domain activity” value turned out to be 93000.

On to “NNGKGQGKRRASSSALAAEKMVEKEAWLRSPKAVCTLSIAVMRSALHLMNAHL”, for which the “transcriptional activation domain activity” value came to 67700.

As to “IRFTLPTLVFAAVQLARRFKLLEAGGWSEWARKMCSLYKFVHQIIGLLYTRVE”, the “transcriptional activation domain activity” value was 62600.

Consider “MMHCLRYFLLLLFLPFPSAPPYLLLLFIVSMFLYHRPCAYCTFLIMSIFSATC”, for which the “transcriptional activation domain activity” value is 76700.

In the case of “AKPDVKKAKAAPVASPKPKAKAAKKVAEPAVEEKKVEEKAEKLAKKAKATKAE”, the “transcriptional activation domain activity” value came out at 32700.

Consider “FYLSPVMPLFPPLLKLLREYLSDPLYKDFVSAIYLWVRSVELHHMSTLCIALL”, for which the “transcriptional activation domain activity” value is 68900.

As to “ILLTCLLQICCRFVQEKQTRCLQILLHYIGSQASMHAGARPLELLCRSLLEAM”, the “transcriptional activation domain activity” value worked out at 40900.

In the case of “ADPNGAAAATTAAAPEKKAEEPVTPAKSSAAPASTSSTPASTNTTEKKKKNRL”, the “transcriptional activation domain activity” value was found to be 34700.

Take “DVEMLKGLALRNPLEEGEDEAASLSQYAVNRQILLTYVILKLKLIRGKCILFV”: the “transcriptional activation domain activity” value was 35000.

Turning to “MGSLLLFMGIDEGSFLCGFFFSIFFLLLAFFTSYGCFCDKFFFLLYLLLLLRK”, the “transcriptional activation domain activity” value came to 44300.

In the case of “SLSFTPPHSNPPSPSFLLPFPLPFLLPFPPLSFPFPPPFAFPFTPFPPFPFSP”, the “transcriptional activation domain activity” value was found to be 38700.

As to “GAEYICQYKGGLIGKHFKSFAQIMPYLIYDLVPPSVLDAWTTIGSPVVLLWHT”, the “transcriptional activation domain activity” value is 46000.

Regarding “MLILLLLLLLLLLLLLLLIMIMIMILMIFLLLFMILIFLLVIMREFCWLWVLW”, the “transcriptional activation domain activity” value came to 44900.

As for “LYHALRLCLKFFVVSLVADPEFQRELDYFMKNKPWFIRWPAVFSLNMVWNYTK”, the “transcriptional activation domain activity” value was found to be 42600.

For the sequence “DIEQQVRFRLTQIYFLILKLDAFFHFVLCVFYAVVMTQEKYYTLWGVIDRKFI”, the “transcriptional activation domain activity” value turned out to be 79400.

As to “PKRKRAAPKKKDAEDNTEEKPKRGRKKKEENGDAEEKPKKAPVRKARATKKVE”, the “transcriptional activation domain activity” value is below 6570.

As to “LPNFLKLGLTTLYSAIGFDEWPSDAVKWAYYFSNIRMVRSWSSWDLYQHLVPW”, the “transcriptional activation domain activity” value was determined as 45500.

As to “MSIVLLCSHIFYTLLGSRRFIAACFFWSLSVPSHLSHICLSCIFLLLSFFLLC”, the “transcriptional activation domain activity” value stood at 53900.

For the sequence “LYVIIFPILYFSLLLFYFFSSCGGVGWWAVGWHGVLCFFVLLGWVGLGGCCLC”, the “transcriptional activation domain activity” value is 35900.

On to “WKATKYLIGLWIQCFRDRGLIGPVGYRGHVHCVVRFCLCLIPKSHWQTIIVVT”, for which the “transcriptional activation domain activity” value was found to be 63500.

Consider “MYTHALDPHDAANGLYSCLPCFYIFISTDDVARKIVLVPCIPLLKYALHAIQL”, for which the “transcriptional activation domain activity” value was 61900.

Turning to “GFTTLSMMHATVFHGDLISFKHFLELYRHSPLLILYICGYKNTEYYAARYFYS”, the “transcriptional activation domain activity” value was determined as 34700.

With “TRGAPPAPPPPPPPPARPSESGAPPPPPPPPARGAPPPPPPPPPPAGGAPPPP”, the “transcriptional activation domain activity” value is 36500.

Take “MAPETADKPSRRRHIKSRSGCKNCKKRKVKCGEERPSCRNCSRRGSLCDLADE”: the “transcriptional activation domain activity” value is 20400.

For the sequence “DGDLDEAVYKGFEYKHLGNLAYIGNAAVFDLNGWSIGGGLIFVYLWRSVYFAQ”, the “transcriptional activation domain activity” value is 67800.

On to “MGTLYPLVLPWFTGSYFLDIGIDFVFQKDTSYLGYILHTLHAPFLLSCLFLVL”, for which the “transcriptional activation domain activity” value stood at 65000.

For the sequence “GSEIVDGDEESSPDGVRIKAESGSSAPVATSSALPPQGGYIGRLNVRKSGKIE”, the “transcriptional activation domain activity” value amounted to 29800.

Turning to “KIISAFGWNADKHLGFALLQLCMDGNRIRSPLAAMMLLMYYVTLMTHCPQILT”, the “transcriptional activation domain activity” value turned out to be 63700.

As for “TRHARALEVIKFTKRILSVGGMKYRERMFWWCPIDSATVRAWMLWVLGSIPLV”, the “transcriptional activation domain activity” value worked out at 62900.

As for “ESNVEAGKAEAEKAVEEAAGAEGEGGEEKAVEEEVAEGAEGEAAEGEAAEGEA”, the “transcriptional activation domain activity” value was found to be 32600.

On to “WLSHSQKKHCELCKTPFRFTKLYAPNMPKALPTHIFLSHMAKYILRNLLVWLR”, for which the “transcriptional activation domain activity” value amounted to 61200.

On to “NITKILVMKFFTIDFTFTIMYITGLLITFLYYLVGYFQMNVKLLGSDRAYFAF”, for which the “transcriptional activation domain activity” value stood at 35700.

Consider “FVHVYLRKRISGFPPGYRVAGELIIWCGAVVALSFESILATDASGSGYRLSDP”, for which the “transcriptional activation domain activity” value was 58200.

On to “FFLLFHIFHCLWGPRATILLFFSILLFFYPISTFMRCIIHRVFLLFFAFFFFL”, for which the “transcriptional activation domain activity” value was determined as 22200.

In the case of “KTPAAANKAGGGGAGGKSAGGRGKTQRARGGRVKQATTQKQTATPKQQQTAAK”, the “transcriptional activation domain activity” value was found to be 24000.

For the sequence “RKAKATAKEGDKEKSDGGEKLKKASKRSDGEDDKAGQRSSGNKKSRAKKRAED”, the “transcriptional activation domain activity” value came out at 16400.

On to “GPSAEATPPSTEVKKKRQYRKRQITAEGGEAENGEASSAVPKPKRVRKKKDPP”, for which the “transcriptional activation domain activity” value was 38300.

As to “AGSGGEGADGNETRRRSSGRGRGRGRGRGGRASRGGRGGKSEGAEGFTEKAEG”, the “transcriptional activation domain activity” value worked out at 15900.

“MFFLSSFSALLAFSPPPSLLLLLLLLLTFPLSGFLALFLPRFSISLLTLSFFY”: the “transcriptional activation domain activity” value came to 50700.

In the case of “VILLPLSFSLWYCLLFAYGILVSLYLLTLKNPTEINFLGFYIWKYENAFWVLM”, the “transcriptional activation domain activity” value came out at 60100.

On to “NKVLRWALDSHIKKWSLDHLRTIAHLIQVVELHHFWSEKENAVALIRVIFKSL”, for which the “transcriptional activation domain activity” value turned out to be 59700.

Consider “QAEDSNDNDNNNKAAAEEEEEEGGGERSGPMVNGNGGGGAEGMVNGASAVGRD”, for which the “transcriptional activation domain activity” value came out at 14800.

For the sequence “MSSMHKLVTIFTGQGRVLSFFSLCVLRGLYYYSLLLRYLYFTLLVFFLSLFPF”, the “transcriptional activation domain activity” value stood at 49100.

As to “DSRKEERRPSGHERKDRERGRDSRKDRDRKRKERLDDTASDDKKDRKRDRGEK”, the “transcriptional activation domain activity” value stood at 24700.

On to “EFVRTSHGRLPAGKRLVKGGYEEDGTPLYHGMAIHEGIKVPGKISHRLYVLQS”, for which the “transcriptional activation domain activity” value worked out at 43700.

Regarding “RRPRAAKPGTEQPKPETEKPGSEKRPGSEKRPRGRPRKAAAKPSTEKQPSNAK”, the “transcriptional activation domain activity” value is 21300.

Regarding “LAMQGFFRTFGLLCINFDSAFRLATFFLPNMIQYTGYLIPTFQMKRWLFWISY”, the “transcriptional activation domain activity” value turned out to be 43200.
